Reference: patent publication US20250262210A1 (TRUSTEES OF COLUMBIA UNIVERSITY IN THE CITY OF NEW YORK, published 2025)

How the values were obtained:
Assay in all cases: IP/MS, LZTR1 R810W-FLAG, U87
DIP2B = DIP2B (human, UniProt Q9P265 1-1576)
Method in brief: (§1)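 Gel slices were reduced with 5 mM DTT, alkylated with 11 mM IAA and digested overnight at 37° C. with trypsin. Peptides were analysed on an Orbitrap Fusion Tribrid by LC-MS/MS.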

ARFGEF1 = ARFGEF1 (human, UniProt Q9Y6D6 1-1849)
Method in brief: as §1

KIF1B = KIF1B (human, UniProt O60333 2-1816, limits assumed)
Method in brief: as §1

DPP9 = DPP9 (human, UniProt Q86TI2 2-863, limits assumed)
Method in brief: as §1

VPS18 = molecular target: T1, VPS18 (human, UniProt Q9P253 2-973)
T1 sequence (looked up): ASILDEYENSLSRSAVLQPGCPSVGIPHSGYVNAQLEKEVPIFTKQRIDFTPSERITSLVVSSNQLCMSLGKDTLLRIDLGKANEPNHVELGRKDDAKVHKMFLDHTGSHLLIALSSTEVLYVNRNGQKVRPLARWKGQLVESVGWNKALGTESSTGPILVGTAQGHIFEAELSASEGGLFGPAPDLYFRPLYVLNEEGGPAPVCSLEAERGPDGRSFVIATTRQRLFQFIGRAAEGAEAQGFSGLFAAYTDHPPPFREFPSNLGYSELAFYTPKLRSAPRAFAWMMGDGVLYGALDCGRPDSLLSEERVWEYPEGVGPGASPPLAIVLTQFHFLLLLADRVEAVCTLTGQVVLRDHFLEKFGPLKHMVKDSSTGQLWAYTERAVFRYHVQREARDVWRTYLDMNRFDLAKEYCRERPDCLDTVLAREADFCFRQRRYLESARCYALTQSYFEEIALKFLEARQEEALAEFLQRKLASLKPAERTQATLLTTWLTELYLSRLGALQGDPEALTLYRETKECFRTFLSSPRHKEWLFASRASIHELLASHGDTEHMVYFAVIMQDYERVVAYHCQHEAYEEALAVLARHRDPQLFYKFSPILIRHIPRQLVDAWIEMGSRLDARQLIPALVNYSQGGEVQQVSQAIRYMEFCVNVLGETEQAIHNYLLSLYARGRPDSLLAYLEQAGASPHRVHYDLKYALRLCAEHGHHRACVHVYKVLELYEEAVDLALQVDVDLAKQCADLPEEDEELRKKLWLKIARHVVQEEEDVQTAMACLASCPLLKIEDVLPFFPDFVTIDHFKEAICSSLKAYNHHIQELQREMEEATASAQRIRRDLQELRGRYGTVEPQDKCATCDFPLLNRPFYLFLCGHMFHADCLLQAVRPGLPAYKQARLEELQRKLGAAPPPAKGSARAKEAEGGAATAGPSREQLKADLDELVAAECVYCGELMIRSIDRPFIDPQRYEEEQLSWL
Method in brief: as §1

Measured: binding result

Chain of KIF1B (O60333 2-1816 limits assumed): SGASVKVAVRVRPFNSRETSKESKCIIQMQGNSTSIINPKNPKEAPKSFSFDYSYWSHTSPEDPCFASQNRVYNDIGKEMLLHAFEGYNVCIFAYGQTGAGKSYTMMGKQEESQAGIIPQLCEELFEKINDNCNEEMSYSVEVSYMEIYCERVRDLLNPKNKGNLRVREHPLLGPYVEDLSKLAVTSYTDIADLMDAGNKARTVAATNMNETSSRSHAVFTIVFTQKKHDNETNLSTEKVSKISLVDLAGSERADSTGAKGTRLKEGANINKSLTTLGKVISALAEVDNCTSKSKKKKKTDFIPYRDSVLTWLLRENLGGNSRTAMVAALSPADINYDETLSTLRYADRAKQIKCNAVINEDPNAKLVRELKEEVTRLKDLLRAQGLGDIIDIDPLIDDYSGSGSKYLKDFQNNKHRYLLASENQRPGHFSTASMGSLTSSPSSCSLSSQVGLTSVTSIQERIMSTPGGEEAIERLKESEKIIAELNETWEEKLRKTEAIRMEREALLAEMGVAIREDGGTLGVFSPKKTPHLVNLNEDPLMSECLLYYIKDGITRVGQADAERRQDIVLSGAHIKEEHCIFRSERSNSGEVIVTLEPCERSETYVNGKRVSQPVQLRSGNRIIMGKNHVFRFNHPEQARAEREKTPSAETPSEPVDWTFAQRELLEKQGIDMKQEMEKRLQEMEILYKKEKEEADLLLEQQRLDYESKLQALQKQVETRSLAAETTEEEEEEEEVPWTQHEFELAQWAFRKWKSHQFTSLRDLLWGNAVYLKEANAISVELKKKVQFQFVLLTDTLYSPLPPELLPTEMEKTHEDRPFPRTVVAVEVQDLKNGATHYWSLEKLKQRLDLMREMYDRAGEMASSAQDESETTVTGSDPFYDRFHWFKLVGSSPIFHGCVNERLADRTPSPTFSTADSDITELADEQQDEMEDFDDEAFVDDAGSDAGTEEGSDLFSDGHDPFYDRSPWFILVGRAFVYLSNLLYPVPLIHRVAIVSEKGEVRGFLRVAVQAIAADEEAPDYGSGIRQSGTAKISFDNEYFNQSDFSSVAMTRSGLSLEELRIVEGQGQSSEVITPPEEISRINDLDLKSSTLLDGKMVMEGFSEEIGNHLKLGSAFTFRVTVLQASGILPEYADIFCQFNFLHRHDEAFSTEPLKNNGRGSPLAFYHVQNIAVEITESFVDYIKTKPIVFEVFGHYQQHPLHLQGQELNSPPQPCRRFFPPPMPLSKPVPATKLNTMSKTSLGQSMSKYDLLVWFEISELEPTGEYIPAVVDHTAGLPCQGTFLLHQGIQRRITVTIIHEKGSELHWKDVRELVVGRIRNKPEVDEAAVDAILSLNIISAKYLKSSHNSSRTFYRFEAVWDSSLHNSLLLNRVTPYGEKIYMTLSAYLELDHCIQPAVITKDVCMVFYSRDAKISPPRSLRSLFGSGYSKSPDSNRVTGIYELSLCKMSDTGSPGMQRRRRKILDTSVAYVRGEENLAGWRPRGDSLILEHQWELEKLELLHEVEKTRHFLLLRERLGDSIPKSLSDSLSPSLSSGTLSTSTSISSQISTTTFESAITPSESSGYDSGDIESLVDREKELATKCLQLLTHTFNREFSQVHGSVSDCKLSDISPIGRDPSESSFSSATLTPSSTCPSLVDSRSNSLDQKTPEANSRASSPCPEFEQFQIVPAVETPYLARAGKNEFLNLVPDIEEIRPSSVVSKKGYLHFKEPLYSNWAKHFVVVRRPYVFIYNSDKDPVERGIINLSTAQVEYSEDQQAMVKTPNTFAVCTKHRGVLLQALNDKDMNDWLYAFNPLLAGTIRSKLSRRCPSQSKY
Chain of DIP2B (Q9P265 whole entry, the tested form may be a part): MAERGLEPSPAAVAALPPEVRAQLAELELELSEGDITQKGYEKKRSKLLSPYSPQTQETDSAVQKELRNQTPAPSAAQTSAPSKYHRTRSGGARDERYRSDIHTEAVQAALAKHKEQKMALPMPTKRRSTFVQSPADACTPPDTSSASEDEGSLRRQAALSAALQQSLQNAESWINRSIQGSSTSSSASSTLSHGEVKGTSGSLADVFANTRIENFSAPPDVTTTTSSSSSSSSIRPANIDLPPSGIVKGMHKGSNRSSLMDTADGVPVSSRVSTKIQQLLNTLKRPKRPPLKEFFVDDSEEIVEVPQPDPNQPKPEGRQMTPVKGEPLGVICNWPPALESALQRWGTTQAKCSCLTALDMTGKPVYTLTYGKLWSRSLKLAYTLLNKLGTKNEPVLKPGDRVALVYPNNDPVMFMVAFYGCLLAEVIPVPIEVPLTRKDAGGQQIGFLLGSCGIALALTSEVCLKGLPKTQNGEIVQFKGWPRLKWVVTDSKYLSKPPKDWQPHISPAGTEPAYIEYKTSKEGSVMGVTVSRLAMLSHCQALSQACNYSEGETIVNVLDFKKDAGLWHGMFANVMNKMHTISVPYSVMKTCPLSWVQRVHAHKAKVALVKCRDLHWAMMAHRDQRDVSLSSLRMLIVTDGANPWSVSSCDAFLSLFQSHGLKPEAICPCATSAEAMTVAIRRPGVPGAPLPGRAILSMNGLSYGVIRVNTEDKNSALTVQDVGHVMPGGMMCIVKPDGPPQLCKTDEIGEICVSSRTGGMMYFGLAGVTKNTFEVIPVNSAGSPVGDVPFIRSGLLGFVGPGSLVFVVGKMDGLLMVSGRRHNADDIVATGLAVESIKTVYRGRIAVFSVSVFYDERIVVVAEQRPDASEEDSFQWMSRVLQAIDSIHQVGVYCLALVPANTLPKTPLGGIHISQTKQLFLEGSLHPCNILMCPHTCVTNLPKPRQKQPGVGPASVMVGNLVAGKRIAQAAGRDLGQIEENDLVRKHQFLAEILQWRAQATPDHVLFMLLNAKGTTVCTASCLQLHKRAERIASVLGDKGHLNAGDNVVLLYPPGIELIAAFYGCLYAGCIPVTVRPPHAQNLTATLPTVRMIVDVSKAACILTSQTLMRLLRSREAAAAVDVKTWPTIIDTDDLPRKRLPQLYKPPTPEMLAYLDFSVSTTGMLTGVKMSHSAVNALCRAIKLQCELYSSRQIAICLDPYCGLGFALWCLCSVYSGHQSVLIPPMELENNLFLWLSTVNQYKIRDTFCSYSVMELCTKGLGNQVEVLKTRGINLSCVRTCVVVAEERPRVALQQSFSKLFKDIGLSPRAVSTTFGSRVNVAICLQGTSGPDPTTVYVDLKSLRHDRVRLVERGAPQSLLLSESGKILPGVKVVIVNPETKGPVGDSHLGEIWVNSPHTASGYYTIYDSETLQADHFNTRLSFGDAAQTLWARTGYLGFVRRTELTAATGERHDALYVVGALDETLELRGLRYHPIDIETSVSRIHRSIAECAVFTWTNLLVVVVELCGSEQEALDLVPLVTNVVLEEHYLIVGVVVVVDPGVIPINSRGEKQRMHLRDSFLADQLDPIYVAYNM
Chain of DPP9 (Q86TI2 2-863 limits assumed): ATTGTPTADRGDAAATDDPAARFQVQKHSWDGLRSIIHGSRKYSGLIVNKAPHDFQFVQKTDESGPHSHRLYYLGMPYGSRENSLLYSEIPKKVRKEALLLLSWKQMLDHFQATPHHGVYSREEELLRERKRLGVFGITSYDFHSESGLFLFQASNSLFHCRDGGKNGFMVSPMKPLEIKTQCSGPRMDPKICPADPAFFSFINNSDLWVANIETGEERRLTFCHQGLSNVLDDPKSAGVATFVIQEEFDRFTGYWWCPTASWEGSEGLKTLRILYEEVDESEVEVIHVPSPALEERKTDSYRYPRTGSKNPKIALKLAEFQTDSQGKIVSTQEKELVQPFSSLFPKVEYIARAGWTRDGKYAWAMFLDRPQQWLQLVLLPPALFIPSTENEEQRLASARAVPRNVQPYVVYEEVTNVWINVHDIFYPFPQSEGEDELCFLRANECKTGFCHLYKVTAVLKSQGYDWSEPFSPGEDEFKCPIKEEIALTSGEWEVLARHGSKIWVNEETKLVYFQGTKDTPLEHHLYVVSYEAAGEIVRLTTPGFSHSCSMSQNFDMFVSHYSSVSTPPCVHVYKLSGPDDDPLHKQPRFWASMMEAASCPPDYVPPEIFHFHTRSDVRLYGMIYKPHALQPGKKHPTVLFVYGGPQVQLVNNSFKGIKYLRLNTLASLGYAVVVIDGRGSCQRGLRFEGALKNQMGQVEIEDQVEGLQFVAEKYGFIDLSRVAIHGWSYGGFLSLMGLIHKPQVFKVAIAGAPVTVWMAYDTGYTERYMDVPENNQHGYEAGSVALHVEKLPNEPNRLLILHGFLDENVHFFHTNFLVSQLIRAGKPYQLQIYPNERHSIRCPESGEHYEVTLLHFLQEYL

B1: LZTR1 R810W-FLAG (other, human, UniProt Q8N653 1-840, looked up)
chain: MAGPGSTGGQIGAAALAGGARSKVAPSVDFDHSCSDSVEYLTLNFGPFETVHRWRRLPPCDEFVGARRSKHTVVAYKDAIYVFGGDNGKTMLNDLLRFDVKDCSWCRAFTTGTPPAPRYHHSAVVYGSSMFVFGGYTGDIYSNSNLKNKNDLFEYKFATGQWTEWKIEGRLPVARSAHGATVYSDKLWIFAGYDGNARLNDMWTIGLQDRELTCWEEVAQSGEIPPSCCNFPVAVCRDKMFVFSGQSGAKITNNLFQFEFKDKTWTRIPTEHLLRGSPPPPQRRYGHTMVAFDRHLYVFGGAADNTLPNELHCYDVDFQTWEVVQPSSDSEVGGAEVPERACASEEVPTLTYEERVGFKKSRDVFGLDFGTTSAKQPTQPASELPSGRLFHAAAVISDAMYIFGGTVDNNIRSGEMYRFQFSCYPKCTLHEDYGRLWESRQFCDVEFVLGEKEECVQGHVAIVTARSRWLRRKITQARERLAQKLEQEAAPVPREAPGVAAGGARPPLLHVAIREAEARPFEVLMQFLYTDKIKYPRKGHVEDVLLIMDVYKLALSFQLCRLEQLCRQYIEASVDLQNVLVVCESAARLQLSQLKEHCLNFVVKESHFNQVIMMKEFERLSSPLIVEIVRRKQQPPPRTPLDQPVDIGTSLIQDMKAYLEGAGAEFCDITLLLDGHPRPAHKAILAARSSYFEAMFRSFMPEDGQVNISIGEMVPSRQAFESMLRYIYYGEVNMPPEDSLYLFAAPYYYGFYNNRLQAYCKQNLEMNVTVQNVLQILEAADKTQALDMKRHCLHIIVHQFTKVSKLPTLWSLSQQLLLDIIDSLASHISDKQCAELGADI
notes: Stably expressed in U87 cells by lentivirus; also called LZTR1-FLAG-R810W; LZTR1 RW; not shown: FLAG tag
binds: all assays above
